Assay results: PMC8790524, “Probing the binding of interleukin-23 to individual receptor components and the IL-23 heteromeric receptor complex in living cells using NanoBRET” (Cell Chemical Biology, 2022)
Where “and” joins values, the source holds several entries; their conditions need not be identical. Equal values may be shown once.

T1: NanoLuciferase-tagged full-length IL23R (UniProt Q5VWK5 24-629)
T1 construct: IL-23 receptor (IL23R), full-length, synthesised without its endogenous signal peptide; Gly-Ser-Arg linker between NanoLuciferase and its N terminus; Open reading frame: N-terminal IL-6 secretion signal, NanoLuciferase, Gly-Ser-Arg, IL23R; in a pNLF vector; also called NL-IL23R; IL6SS-NL-IL23R; source: HEK293T, transiently transfected, on living cells; not shown: NanoLuciferase, N-terminal, kept
T1 sequence (looked up): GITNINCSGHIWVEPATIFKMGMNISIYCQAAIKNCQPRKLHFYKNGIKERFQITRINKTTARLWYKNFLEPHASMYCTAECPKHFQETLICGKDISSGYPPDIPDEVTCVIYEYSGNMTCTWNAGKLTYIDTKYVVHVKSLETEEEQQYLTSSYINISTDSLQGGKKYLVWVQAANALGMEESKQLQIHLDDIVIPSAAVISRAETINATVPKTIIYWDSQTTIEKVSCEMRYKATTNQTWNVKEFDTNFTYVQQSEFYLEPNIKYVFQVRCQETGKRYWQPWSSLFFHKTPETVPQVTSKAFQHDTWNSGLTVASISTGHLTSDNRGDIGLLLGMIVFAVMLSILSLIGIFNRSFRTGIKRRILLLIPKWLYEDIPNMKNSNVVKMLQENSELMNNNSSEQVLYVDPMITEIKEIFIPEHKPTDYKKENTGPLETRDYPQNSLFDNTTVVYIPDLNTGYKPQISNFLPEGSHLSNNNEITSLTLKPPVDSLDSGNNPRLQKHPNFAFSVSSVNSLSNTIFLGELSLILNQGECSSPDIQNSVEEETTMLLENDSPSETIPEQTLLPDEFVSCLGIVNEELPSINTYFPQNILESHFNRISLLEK

B1: Recombinant IL-23 protein (unlabeled) (ligand)
chain 1: RAVPGGSSPAWTQCQQLSQKLCTLAWSAHPLVGHMDLREEGDEETTNDVPHIQCGDGCDPQGLRDNSQFCLQRIHQGLIFYEKLLGSDIFTGEPSLLPDSPVGQLHASLLGLSQLLQPEGHHWETQQIPSLSPSQPWQRLLLRFKILRSLQAFVAVAARVFAHGAATLSP
chain 2: IWELKKDVYVVELDWYPDAPGEMVVLTCDTPEEDGITWTLDQSSEVLGSGKTLTIQVKEFGDAGQYTCHKGGEVLSHSLLLLHKKEDGIWSTDILKDQKEPKNKTFLRCEAKNYSGRFTCWWLTTISTDLTFSVKSSRGSSDPQGVTCGAATLSAERVRGDNKEYEYSVECQEDSACPAAEESLPIEVMVDAVHKLKYENYTSSFFIRDIIKPDPPKNLQLKPLKNSRQVEVSWEYPDTWSTPHSYFSLTFCVQVQGKSKREKKDRVFTDKTSATVICRKNASISVRAQDRYYSSSWSEWASVPCS
modifications: several mass peaks differing by 162 Da, most likely N-linked glycosylation
notes: IL23p19, the alpha subunit of IL-23, disulfide-linked to IL12p40; IL12p40, the beta subunit of IL-23, disulfide-linked to IL23p19; also called interleukin-23; unlabeled IL-23; source: HEK293-F, co-transduced with BacMam viruses (p19-His and p40), purified from the supernatant (Ni-Sepharose); gift of GlaxoSmithKline
B2: TAMRA-conjugated IL-23 (ligand)
chain 1: B1 chain 1
chain 2: B1 chain 2
modifications: TAMRA (5(6)-carboxytetramethylrhodamine, coupled as NHS ester); 64.9% of TAMRA labels were located on IL23p19; sites not stated | TAMRA (labelled to a lesser extent than IL23p19; sites not stated); several mass peaks differing by 162 Da, most likely N-linked glycosylation
notes: IL23p19, the alpha subunit of IL-23, disulfide-linked to IL12p40; IL12p40, the beta subunit of IL-23, disulfide-linked to IL23p19; A mixture: by LC-MS 52.3% unlabeled, 29.5% single and 18.2% double labeled; by FCS/PCH 39.6% mono-labeled, 11.9% multi-labeled, 48.5% unlabeled; also called IL23-TMR; TAMRA-tagged IL-23; source: HEK293-F, co-transduced with BacMam viruses (p19-His and p40), purified …

Assays:
[1] = target: T2, NL-IL23R co-expressed with untagged IL12Rβ1 (heteromeric IL-23 receptor complex) (UniProt Q5VWK5 24-629; P42701-1 24-662); test: FRET or BRET; NanoBRET competition on living HEK293T cells co-transfected with NL-IL23R and IL12Rβ1: titration of unlabelled IL-23 against several concentrations of IL23-TMR; HBSS with 1 mg/ml BSA, 1 h; Ki by Cheng-Prusoff or by linear regression of IC50 against IL23-TMR concentration; details: one partner purified
T2 construct: IL-23 receptor (IL23R), full-length, synthesised without its endogenous signal peptide; Gly-Ser-Arg linker between NanoLuciferase and its N terminus; IL-12 receptor subunit β1 (IL12Rβ1), untagged, from the Origene expression plasmid; also called NL-IL23R:IL12Rβ1 receptor complex; NL-IL23R and IL12Rβ1; source: HEK293T, transiently co-transfected (1 μg of each plasmid), on living cells; not shown: …

[2] = target: NL-IL12Rβ1 co-expressed with HaloTag-IL23R (UniProt P42701 24-662; Q5VWK5 24-629, HaloTag NanoBRET 618 ligand bound to the HaloTag); test: cell-based or functional assay
[3] = target: T3, NL-IL23R co-expressed with SNAP-tag fused IL12Rβ1 (UniProt Q5VWK5 24-629; P42701 24-662); test: cell-based or functional assay
[4] = target: wild-type IL23R heteromer (IL23R and IL12Rβ1) (UniProt Q5VWK5-1 24-629; P42701-1 24-662); test: cell-based or functional assay
[5] = target: T4, NL-IL23R co-expressed with HaloTag fused IL12Rβ1 (UniProt Q5VWK5 24-629; P42701 24-662); test: cell-based or functional assay
[6] = target: T2, NL-IL23R co-expressed with untagged …; test: cell-based or functional assay
[7] = target: T5, NanoLuciferase-tagged full-length IL12Rβ1 (UniProt P42701 24-662); test: FRET or BRET; NanoBRET saturation binding of IL23-TMR to living HEK293T cells transiently expressing the NL-fused receptor (alone or 1:1 with the partner receptor plasmid); HBSS with 1 mg/ml BSA, 1 h, 37.5°C; non-specific binding with an excess of unlabelled IL-23 (50 nM to 1 μM); details: one partner purified
T5 construct: IL-12 receptor subunit β1 (IL12Rβ1), full-length, synthesised without its endogenous signal peptide; Gly-Ser-Arg linker between NanoLuciferase and its N terminus; Open reading frame: N-terminal IL-6 secretion signal, NanoLuciferase, Gly-Ser-Arg, IL12Rβ1; in a pNLF vector; also called NL-IL12Rβ1; IL6SS-NL-IL12Rβ1; source: HEK293T, transiently transfected, on living cells; not shown: …

[8] = target: T3, NL-IL23R co-expressed with SNAP-tag …; test: as above; details: one partner purified
[9] = target: T1, NanoLuciferase-tagged full-length IL23R; test: as above; details: one partner purified
[10] = target: T4, NL-IL23R co-expressed with HaloTag …; test: as above; details: one partner purified
[11] = target: T6, NL-IL12Rβ1 co-expressed with unlabeled IL23R (UniProt P42701 24-662; Q5VWK5-1 24-629); test: as above; details: one partner purified
T6 construct: IL-12 receptor subunit β1 (IL12Rβ1), full-length, synthesised without its endogenous signal peptide; Gly-Ser-Arg linker between NanoLuciferase and its N terminus; IL-23 receptor (IL23R) from the Origene IL23R-MYCDDK expression plasmid; called unlabeled or untagged in the results; also called NL-IL12Rβ1:IL23R complex; NL-IL12Rβ1 + IL23R; source: HEK293T, transiently co-transfected (1:1 or 1:10 …)

[12] = target: T2, NL-IL23R co-expressed with untagged …; test: as above; details: one partner purified
[13] = target: T6, NL-IL12Rβ1 co-expressed with unlabeled …; test: FRET or BRET; NanoBRET saturation binding of IL23-TMR to living HEK293T cells transfected with NL-IL12Rβ1 and IL23R at a 1:10 ratio (2.2 μg total DNA per well); HBSS with 1 mg/ml BSA, 1 h; non-specific binding with 100 nM unlabelled IL-23; details: one partner purified

| Binder | Ki [1] | EC50 of IL-23 for the increase in intra-receptor BRET between NL-IL12Rβ1 and HaloTag-IL23R [2] [nM] | EC50 of IL-23 for the increase in intra-receptor BRET between NL-IL23R and SNAP-IL12Rβ1 (AF488) [3] [nM] | potency (EC50) of IL-23 for STAT3 phosphorylation (Tyr705, AlphaLISA SureFire Ultra), HEK293T cells, 30 min [3] [nM] | EC50 of IL-23 for STAT3 phosphorylation (Tyr705, AlphaLISA SureFire Ultra), HEK293T cells, 30 min [4] [nM] | EC50 of IL-23 for the decrease in intra-receptor BRET between NL-IL23R and HaloTag-IL12Rβ1 (HT618) [5] [nM] | potency (EC50) of IL-23 for STAT3 phosphorylation (Tyr705, AlphaLISA SureFire Ultra), HEK293T cells, 30 min [5] [nM] | potency (EC50) of IL-23 for STAT3 phosphorylation (Tyr705, AlphaLISA SureFire Ultra), HEK293T cells, 30 min [6] [nM] | Kd [1] [nM] | Kd [7] [nM] | Kd [8] [nM] | Kd [9] [nM] | Kd [10] [nM] | KD of the high-affinity site (two-site fit) [11] [nM] | KD of the low-affinity site (two-site fit) [11] [nM] | Kd [11] [nM] | Kd [12] [nM] | Kd [13] [nM] |
| --- | --- | --- | --- | --- | --- | --- | --- | --- | --- | --- | --- | --- | --- | --- | --- | --- | --- | --- |
| B1 | 0.0316 nM and 0.0272 nM | 0.457 | 0.0429 | 0.15 | 0.269 | 0.0436 | 0.199 | 0.154 | – | – | – | – | – | – | – | – | – | – |
| B2 | – | – | – | – | – | – | – | – | 0.0351 | 30.1 | 0.454 ± 0.043 | 222 | 0.179 ± 0.008 | 0.028 | 72 | 46.7 | 0.027 | 0.647 |
